Assay results published in PMC11482615, “Novel Peptides LFLLP and DFFL from Jack Bean Protein Hydrolysates Suppress the Inflammatory Response in Lipopolysaccharide-Stimulated RAW 264.7 Cells” (Foods, 2024).
Residues, ends and D or L forms follow the SMILES beside them. *: point of attachment. FITC = O=C1OC2(c3ccc(O)cc3Oc3cc(O)ccc32)c2ccc(NC(=S)*)cc21

System: RAW 264.7 cells
Test: Visualization of FITC-conjugated peptides in RAW 264.7 cells (fluorescence microscopy)
Type: cell-based, mouse
Conditions: 200 μmol/L FITC-conjugated peptide, 24 h; for incorporation into RAW 264.7 cells (fluorescence signal): intensity of the two peptides roughly comparable; for cellular localization in RAW 264.7 cells: non-colocalization with DAPI
Experimental: To visualize the cellular localization of peptides, LFLLP and DFFL were conjugated with fluorescein isothiocyanate isomer-I (FITC-I, Dojindo). Briefly, the LFLLP and DFFL were mixed with FITC-I in a carbonate buffer at pH 9.5 for 2 h. To purify the FITC-conjugated peptides, the mixture was applied to a Sep-Pak C18 cartridge. RAW 264.7 cells were seeded in a 6-well plate (0.5 × 10^4 cells/cm^2). After 3 days, the cells were incubated with FITC-conjugated peptides (LFLLP and DFFL, 200 µmol/L) for 24 h. The cells were then washed with cold PBS and fixed with 4% PFA for 10 min. Lastly, the cells were washed three times with PBS and mounted on microscope slides using a mounting fluid containing DAPI, and the fluorescence signals were visualized using a Leica DMI6000 B fluorescence microscope (Leica).

Compound	incorporation into RAW 264.7 cells (fluorescence signal)	cellular localization in RAW 264.7 cells
CC(C)C[C@H](NC(=O)[C@H](Cc1ccccc1)NC(=O)[C@H](Cc1ccccc1)NC(=O)[C@H](CC(=O)O)NC(=S)Nc1ccc2c(c1)C(=O)OC21c2ccc(O)cc2Oc2cc(O)ccc21)C(=O)O [FITC-conjugated DFFL] ({FITC}-DFFL-OH)	observed in most cells	predominantly localized in the cytosols
CC(C)C[C@H](NC(=O)[C@H](Cc1ccccc1)NC(=O)[C@H](CC(C)C)NC(=S)Nc1ccc2c(c1)C(=O)OC21c2ccc(O)cc2Oc2cc(O)ccc21)C(=O)N[C@@H](CC(C)C)C(=O)N1CCC[C@H]1C(=O)O [FITC-conjugated LFLLP] ({FITC}-LFLLP-OH)	observed in most cells	predominantly localized in the cytosols
